B1: RAD54B (parent)
chain: YVQEKRDGLKRRQQLEEELLRAKI

Variants of: B1
Test: protein stability index of a GFP-peptide fusion (GPS, HEK-293T) (PSI 1-6); higher = more stable
Settings: c terminus: a fixed tail appended
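Also: lentivirally expressed fusions sorted by FACS into six bins by GFP to DsRed ratio, PSI derived from sequencing read proportions per bin multiplied by bin number.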

Compared with YVQEKRDRLKRRQQLEEELLRAKI [G8R], YVQEKRDSLKRRQQLEEELLRAKI [G8S] is lower in protein stability index: 2.28 for the first, 1.99 for the second.

First: YVQEKRDVLKRRQQLEEELLRAKI [G8V]
Second: YVQEKRDYLKRRQQLEEELLRAKI [G8Y]
The protein stability index of the first is lower: 2.11 for the first, 2.12 for the second.

Going from YVQEKRDFLKRRQQLEEELLRAKI [G8F] to YVQEKRDILKRRQQLEEELLRAKI [G8I], the protein stability index falls from 2.27 to 1.99.

Going from YVQEKRDHLKRRQQLEEELLRAKI [G8H] to YVQEKRDTLKRRQQLEEELLRAKI [G8T], the protein stability index falls from 1.92 to 1.74.

Going from YVQEKRDPLKRRQQLEEELLRAKI [G8P] to YVQEKRDMLKRRQQLEEELLRAKI [G8M], the protein stability index rises from 2.12 to 2.29.

First: YVQEKRDCLKRRQQLEEELLRAKI [G8C]
Second: YVQEKRDWLKRRQQLEEELLRAKI [G8W]
The protein stability index of the first is lower: 1.98 for the first, 3.6 for the second.

Compared with YVQEKRDKLKRRQQLEEELLRAKI [G8K], YVQEKRDQLKRRQQLEEELLRAKI [G8Q] is lower in protein stability index: 2.33 for the first, 2.01 for the second.

Compared with YVQEKRDLLKRRQQLEEELLRAKI [G8L], YVQEKRDDLKRRQQLEEELLRAKI [G8D] is lower in protein stability index: 2.45 for the first, 2.27 for the second.

Going from YVQEKRDALKRRQQLEEELLRAKI [G8A] to YVQEKRDELKRRQQLEEELLRAKI [G8E], the protein stability index rises from 1.82 to 2.59.

First: YVQEGRDGLKRRQQLEEELLRAKI [K5G]
Second: YVQEQRDGLKRRQQLEEELLRAKI [K5Q]
The protein stability index of the first is lower: 1.91 for the first, 2.48 for the second.

First: YVQEIRDGLKRRQQLEEELLRAKI [K5I]
Second: YVQELRDGLKRRQQLEEELLRAKI [K5L]
The protein stability index of the first is higher: 2.77 for the first, 1.96 for the second.

First: YVQEFRDGLKRRQQLEEELLRAKI [K5F]
Second: YVQEARDGLKRRQQLEEELLRAKI [K5A]
The protein stability index of the first is higher: 2.49 for the first, 1.96 for the second.

First: YVQEDRDGLKRRQQLEEELLRAKI [K5D]
Second: YVQECRDGLKRRQQLEEELLRAKI [K5C]
The protein stability index of the first is higher: 3.46 for the first, 2.16 for the second.

First: YVQEHRDGLKRRQQLEEELLRAKI [K5H]
Second: YVQEMRDGLKRRQQLEEELLRAKI [K5M]
The protein stability index of the first is higher: 2.26 for the first, 2.25 for the second.

Compared with YVQEPRDGLKRRQQLEEELLRAKI [K5P], YVQENRDGLKRRQQLEEELLRAKI [K5N] is higher in protein stability index: 2.05 for the first, 2.19 for the second.

Compared with YVQEWRDGLKRRQQLEEELLRAKI [K5W], YVQESRDGLKRRQQLEEELLRAKI [K5S] is higher in protein stability index: 2.11 for the first, 2.56 for the second.

Compared with YVQEERDGLKRRQQLEEELLRAKI [K5E], YVQEVRDGLKRRQQLEEELLRAKI [K5V] is lower in protein stability index: 3.57 for the first, 2.1 for the second.

Compared with YVQERRDGLKRRQQLEEELLRAKI [K5R], YVQETRDGLKRRQQLEEELLRAKI [K5T] is lower in protein stability index: 1.86 for the first, 1.74 for the second.

First: YVQEYRDGLKRRQQLEEELLRAKI [K5Y]
Second: YVQEKRDGGKRRQQLEEELLRAKI [L9G]
The protein stability index of the first is higher: 2.4 for the first, 2.14 for the second.

First: YVQEKRDGIKRRQQLEEELLRAKI [L9I]
Second: YVQEKRDGDKRRQQLEEELLRAKI [L9D]
The protein stability index of the first is lower: 2.25 for the first, 2.92 for the second.

Compared with YVQEKRDGHKRRQQLEEELLRAKI [L9H], YVQEKRDGAKRRQQLEEELLRAKI [L9A] is higher in protein stability index: 2.1 for the first, 2.21 for the second.

First: YVQEKRDGYKRRQQLEEELLRAKI [L9Y]
Second: YVQEKRDGCKRRQQLEEELLRAKI [L9C]
The protein stability index of the first is lower: 1.91 for the first, 2.06 for the second.

Going from YVQEKRDGSKRRQQLEEELLRAKI [L9S] to YVQEKRDGRKRRQQLEEELLRAKI [L9R], the protein stability index falls from 1.99 to 1.79.

Going from YVQEKRDGNKRRQQLEEELLRAKI [L9N] to YVQEKRDGTKRRQQLEEELLRAKI [L9T], the protein stability index falls from 2.35 to 1.83.

First: YVQEKRDGVKRRQQLEEELLRAKI [L9V]
Second: YVQEKRDGMKRRQQLEEELLRAKI [L9M]
The protein stability index of the first is lower: 1.82 for the first, 2.02 for the second.

Compared with YVQEKRDGQKRRQQLEEELLRAKI [L9Q], YVQEKRDGEKRRQQLEEELLRAKI [L9E] is higher in protein stability index: 2.26 for the first, 2.85 for the second.

First: YVQEKRDGKKRRQQLEEELLRAKI [L9K]
Second: YVQEKRDGFKRRQQLEEELLRAKI [L9F]
The protein stability index of the first is lower: 1.98 for the first, 2.02 for the second.

First: YVQEKRDGWKRRQQLEEELLRAKI [L9W]
Second: YVQEKRDGPKRRQQLEEELLRAKI [L9P]
The protein stability index of the first is lower: 1.81 for the first, 2.36 for the second.

Going from YVQEKRGGLKRRQQLEEELLRAKI [D7G] to YVQEKRMGLKRRQQLEEELLRAKI [D7M], the protein stability index falls from 1.88 to 1.79.

First: YVQEKREGLKRRQQLEEELLRAKI [D7E]
Second: YVQEKRKGLKRRQQLEEELLRAKI [D7K]
The protein stability index of the first is lower: 1.96 for the first, 2.16 for the second.

First: YVQEKRCGLKRRQQLEEELLRAKI [D7C]
Second: YVQEKRYGLKRRQQLEEELLRAKI [D7Y]
The protein stability index of the first is higher: 3.13 for the first, 1.39 for the second.

Compared with YVQEKRIGLKRRQQLEEELLRAKI [D7I], YVQEKRRGLKRRQQLEEELLRAKI [D7R] is higher in protein stability index: 2.13 for the first, 2.37 for the second.

Going from YVQEKRQGLKRRQQLEEELLRAKI [D7Q] to YVQEKRWGLKRRQQLEEELLRAKI [D7W], the protein stability index falls from 2.21 to 2.14.

First: YVQEKRFGLKRRQQLEEELLRAKI [D7F]
Second: YVQEKRSGLKRRQQLEEELLRAKI [D7S]
The protein stability index of the first is lower: 1.54 for the first, 2.37 for the second.

Going from YVQEKRLGLKRRQQLEEELLRAKI [D7L] to YVQEKRTGLKRRQQLEEELLRAKI [D7T], the protein stability index rises from 1.46 to 3.69.

Compared with YVQEKRHGLKRRQQLEEELLRAKI [D7H], YVQEKRPGLKRRQQLEEELLRAKI [D7P] is higher in protein stability index: 1.67 for the first, 1.88 for the second.

Going from YVQEKRNGLKRRQQLEEELLRAKI [D7N] to YVQEKRVGLKRRQQLEEELLRAKI [D7V], the protein stability index falls from 1.81 to 1.47.

Going from YVQEKRAGLKRRQQLEEELLRAKI [D7A] to YVQEKRDGLKMRQQLEEELLRAKI [R11M], the protein stability index rises from 1.87 to 2.07.

Compared with YVQEKRDGLKQRQQLEEELLRAKI [R11Q], YVQEKRDGLKFRQQLEEELLRAKI [R11F] is lower in protein stability index: 2.32 for the first, 1.69 for the second.

Going from YVQEKRDGLKDRQQLEEELLRAKI [R11D] to YVQEKRDGLKNRQQLEEELLRAKI [R11N], the protein stability index rises from 2.62 to 2.67.

Going from YVQEKRDGLKYRQQLEEELLRAKI [R11Y] to YVQEKRDGLKVRQQLEEELLRAKI [R11V], the protein stability index rises from 1.97 to 2.13.

Going from YVQEKRDGLKCRQQLEEELLRAKI [R11C] to YVQEKRDGLKHRQQLEEELLRAKI [R11H], the protein stability index rises from 1.81 to 2.93.

Compared with YVQEKRDGLKSRQQLEEELLRAKI [R11S], YVQEKRDGLKTRQQLEEELLRAKI [R11T] is higher in protein stability index: 2.36 for the first, 2.46 for the second.

Going from YVQEKRDGLKPRQQLEEELLRAKI [R11P] to YVQEKRDGLKWRQQLEEELLRAKI [R11W], the protein stability index rises from 2.25 to 2.46.

Going from YVQEKRDGLKGRQQLEEELLRAKI [R11G] to YVQEKRDGLKLRQQLEEELLRAKI [R11L], the protein stability index rises from 2 to 2.23.

Compared with YVQEKRDGLKKRQQLEEELLRAKI [R11K], YVQEKRDGLKIRQQLEEELLRAKI [R11I] is higher in protein stability index: 2.44 for the first, 2.86 for the second.

Compared with YVQEKRDGLKARQQLEEELLRAKI [R11A], YVQEKRDGLKERQQLEEELLRAKI [R11E] is higher in protein stability index: 2.82 for the first, 3.22 for the second.
